The values below come from patent US20110243947A1 (Eli Lilly, published 2011).

One test addresses T1, mouse CSF-1R (mouse, UniProt P09581 20-511, limits assumed).
T1 construct: also called murine form of the receptor
T1 sequence (looked up): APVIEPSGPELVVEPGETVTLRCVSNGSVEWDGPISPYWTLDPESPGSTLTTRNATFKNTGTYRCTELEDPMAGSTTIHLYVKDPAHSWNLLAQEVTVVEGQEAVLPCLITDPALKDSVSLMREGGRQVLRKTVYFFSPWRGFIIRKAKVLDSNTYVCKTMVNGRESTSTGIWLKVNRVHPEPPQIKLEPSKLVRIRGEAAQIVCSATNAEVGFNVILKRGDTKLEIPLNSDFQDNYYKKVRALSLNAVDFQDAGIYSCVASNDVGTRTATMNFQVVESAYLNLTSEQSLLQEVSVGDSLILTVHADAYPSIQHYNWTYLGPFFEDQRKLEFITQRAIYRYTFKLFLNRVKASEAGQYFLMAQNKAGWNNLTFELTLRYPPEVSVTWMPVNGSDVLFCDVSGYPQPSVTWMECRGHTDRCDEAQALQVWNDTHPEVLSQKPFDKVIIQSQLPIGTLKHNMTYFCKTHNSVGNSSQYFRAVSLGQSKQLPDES
Briefly: binding ELISA, coated receptor protein. How it is done: (§1) Briefly, coat plates with 100 μL of 200 ng/mL human, mouse or chimera 1-7 proteins overnight.

The next test has as its target T2, chimera 3 (m,m,m) (mouse; human, UniProt P09581 21-292).
T2 construct: range 21-292; not shown: Fc portion of an IgG molecule
Put plainly: binding ELISA, coated chimera. How it is done: as §1
A general note: In an ELISA, binding on a coated surface is turned into a signal by an enzyme label.

T2 sequence (P09581 other isoform, or with tags, fused parts or gaps mutant): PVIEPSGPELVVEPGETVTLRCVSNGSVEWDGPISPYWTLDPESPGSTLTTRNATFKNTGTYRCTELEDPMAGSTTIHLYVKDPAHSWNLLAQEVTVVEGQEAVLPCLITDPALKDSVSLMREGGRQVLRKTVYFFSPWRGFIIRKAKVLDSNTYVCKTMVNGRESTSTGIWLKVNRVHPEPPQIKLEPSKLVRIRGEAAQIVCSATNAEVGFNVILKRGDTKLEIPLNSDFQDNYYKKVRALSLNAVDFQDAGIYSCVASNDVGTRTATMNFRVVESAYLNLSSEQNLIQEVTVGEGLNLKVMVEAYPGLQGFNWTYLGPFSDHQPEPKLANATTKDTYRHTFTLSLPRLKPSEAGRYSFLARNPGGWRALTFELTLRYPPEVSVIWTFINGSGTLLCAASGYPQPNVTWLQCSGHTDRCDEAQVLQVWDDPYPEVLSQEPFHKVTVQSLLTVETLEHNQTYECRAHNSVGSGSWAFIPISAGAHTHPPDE

B1: Antibody 1 (antibody, human IgG1, kappa, V domains shown)
VH: QDQLVESGGGVVQPGRSLRLSCAASGFTFSSYGMHWVRQAPGEGLEWVAVIWYDGSNKYYADSVKGRFTISRDNSKNTLYLQMNSLRAEDTAVYYCARGDYEVDYGMDVWGQGTTVTVAS
VL: AIQLTQSPSSLSASVGDRVTITCRASQGISNALAWYQQKPGKAPKLLIYDASSLESGVPSRFSGSGSGTDFTLTISSLQPEDFATYYCQQFNSYPWTFGQGTKVEIKR
notes: also called anti-CSF-1R Antibody 1
Consider B1, for which the binding result with mouse CSF-1R and in the test with chimera 3 (m,m,m) was “no binding (tested: 100 nM)” in each case.
